# In patent US20230173091A1 (published 2023):
# T1: CD20 (Acro Biosystems) (UniProt P11836 1-297)
# T1 sequence (looked up): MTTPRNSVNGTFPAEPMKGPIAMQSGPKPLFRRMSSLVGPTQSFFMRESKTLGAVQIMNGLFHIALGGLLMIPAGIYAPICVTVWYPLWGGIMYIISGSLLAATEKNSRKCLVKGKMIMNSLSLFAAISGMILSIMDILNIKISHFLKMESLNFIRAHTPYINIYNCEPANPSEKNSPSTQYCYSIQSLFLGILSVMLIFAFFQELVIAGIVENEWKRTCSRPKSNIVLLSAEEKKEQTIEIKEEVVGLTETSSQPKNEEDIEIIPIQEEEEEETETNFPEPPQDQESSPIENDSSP
# Target: T1, CD20 (Acro Biosystems)
binder,measurement,value
"rituximab (antibody, human IgG1, kappa, V domains shown) VH: QVQLQQPGAELVKPGASVKMSCKASGYTFTSYNMHWVKQTPGRGLEWIGAIYPGNGDTSYNQKFKGKATLTADKSSSTAYMQLSSLTSEDSAVYYCARSTYYGGDWYFNVWGAGTTVTVSA VL: QIVLSQSPAILSASPGEKVTMTCRASSSVSYIHWFQQKPGSSPKPWIYATSNLASGVPVRFSGSGSGTSYSLTISRVEAEDAATYYCQQWTSNPPTFGGGTKLEIKR",Kd,< 1 pM
same,koff,< 1e-07 s⁻¹
same,kon,140000 M⁻¹ s⁻¹
